Test results reported in US20120316085A1.

Assays:
[1] = molecular target: c-Myc-containing recombinant protein; assay: SPR; KD against WT as reference
[2] = molecular target: c-Myc-containing recombinant protein; assay: SPR (Biacore T200), c-Myc-containing recombinant protein immobilised, soluble Fab injected at 5-80 nM, 1:1 Langmuir fit

B1: aM parental murine Fab (Fab, V domains shown)
VH: QIQLVQSGPELKKPGETVRISCKASGYTFTTAGMQWVQKMPGKGLKWIGWINTHSGVPKYAEDFKGRFAFSLETSASTAYLQMTNLNNEDTATYFCARGYGKGGYFAMDYWGQGTSVTVSS
VL: DVVMTQIPFSLPVSLGDQASISCRSSQSLVHSNGNTYLHWYVQKPGQSPKLLIYKVSNRFSGVPDRFSGSGSGTYFTLKISRVEAEDLGVYFCSQSTRVPWTFGGGTKLEIK
[1]
  Fold change: 1 fold
[2]
  Kd: 110 nM
  koff: 0.018 s⁻¹
  kon: 160000 M⁻¹ s⁻¹
